Laboratory results from patent US20240084003A1 (SIMCERE ZAIMING PHARMACEUTICAL, published 2024).

T1: monkey CD22 (full length, on HEK293T cells) (monkey)
T1 construct: NCBI XP_014979161.2; also called HEK293T-monkey CD22; HEK293T cells overexpressing monkey CD22
T1 chain: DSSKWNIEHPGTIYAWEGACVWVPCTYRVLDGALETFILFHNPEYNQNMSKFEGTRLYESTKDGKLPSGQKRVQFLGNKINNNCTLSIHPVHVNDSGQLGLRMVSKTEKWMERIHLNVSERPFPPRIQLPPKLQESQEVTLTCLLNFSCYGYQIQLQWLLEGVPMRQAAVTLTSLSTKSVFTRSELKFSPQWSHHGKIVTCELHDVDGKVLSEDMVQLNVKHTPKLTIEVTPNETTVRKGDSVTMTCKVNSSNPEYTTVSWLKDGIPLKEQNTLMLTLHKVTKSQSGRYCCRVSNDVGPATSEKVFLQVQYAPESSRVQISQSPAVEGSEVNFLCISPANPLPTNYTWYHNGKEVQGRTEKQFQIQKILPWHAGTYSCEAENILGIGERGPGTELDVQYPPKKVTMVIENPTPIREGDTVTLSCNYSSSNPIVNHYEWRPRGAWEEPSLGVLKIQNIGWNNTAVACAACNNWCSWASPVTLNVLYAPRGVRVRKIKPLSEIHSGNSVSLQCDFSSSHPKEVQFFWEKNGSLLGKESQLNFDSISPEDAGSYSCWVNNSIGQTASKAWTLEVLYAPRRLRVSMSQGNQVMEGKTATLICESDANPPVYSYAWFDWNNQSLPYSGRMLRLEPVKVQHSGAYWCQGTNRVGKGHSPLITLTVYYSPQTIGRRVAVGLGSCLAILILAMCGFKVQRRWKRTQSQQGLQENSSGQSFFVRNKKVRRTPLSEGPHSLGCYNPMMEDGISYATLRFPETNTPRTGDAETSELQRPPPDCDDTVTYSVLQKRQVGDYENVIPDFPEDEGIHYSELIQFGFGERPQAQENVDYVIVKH

B1: F1.280.1 (antibody, human IgG1, kappa, V domains shown)
VH: QIQLVQSGPELKKPGETVKISCKASGYTFTTYGMSWVKQTPGKGLTWMGWINTDSGVPTYADDFKRRFAFSLEASATTAYLQINNLKNEDTATYFCARGGPDYWGQGTTLTVSS
VL: DILLTQSPATLSVTPGETVSLSCRASQSIYKNLHWYHQKSHRSPRLLIKYASDSISGIPSRFTGSGSGTNFTLSINSVKPEDEGIYYCLQGYIVPLTFGAGTKLELKR
notes: Human-murine chimeric IgG1, kappa
B2: F1.257.3 (antibody, human IgG1, kappa, V domains shown)
VH: QVQLQQSGPELARPGASVKLSCKASGYTFTSYGISWVKQRTGQDLEWIGEIYPKLGTTYYNEKFKDKATLTTDRSSSTAYMALRSLTSEDSAVYFCACPHYYATRGGDYWGQGTTLTVSS
VL: EIVLTQSPATLSVTPGDSVTFSCRASQSISNHLHWYQQKSHESPRLLIRYASQSISGIPSRFSGSGSGTDFTLSLSSVETEDFGVYFCQQSHSWPYTFGGGTKLEIAR
notes: as for B1
B3: F2.70.2 (antibody, human IgG1, lambda, V domains shown)
VH: EVQLVESGGGLVKPGGSLKLSCAASGFTFSDYGMNWFRQAPEKGLEWVAYISRGSHTIYYADTVKGRFTISRDNAKNTLFLQMTSLRSNDTAMYYCVRMAGYYAMDYWGQGTSVTVSS
VL: QLVLTQSSSASFSLGASAKLTCTLSSQHSSYIIEWYQQQPLKPPKYVMELKKDGSHSTGDGIPDRFSGSSSGADRYLSISNIQPEDEAIYICGVGDTIKEQFVYVFGGGTKVTVLG
notes: Human-murine chimeric IgG1, lambda
B4: F2.104.10 (antibody, human IgG1, lambda, V domains shown)
VH: EVQLVESGGGFVKPGGSLKLSCAASGFTFSDYGMNWFRQAPEKGLEWVAYISRGSHTIYYADTVKGRFTISRDNAENTLFLQMTSLRSNDTAMYYCVRMAGYYAMDYWGQGTSLTVSS
VL: QLVLTQSSSASFSLGASAKLTCTLSSQHSSYIIEWYQQQPLKPPKYVMEVKKDGSHSTGDGIPDRFSGSSSGADRYLSISNIQSEDEAIYICGVGDTIKEQFVYVFGGGTKVTVLG
notes: as for B3
B5: F2.343.16 (antibody, human IgG1, lambda, V domains shown)
VH: QVQLKQSGPGLVQPSQSLSITCTVSGFSLTGYGVQWVRQSPGKGLEWLGVIWGGGGTDYNAAFISRLNIIKDNSKSQVFFKMNSLQADDTAIYYCARYSKYGHFDVWGTGTAVTVSS
VL: QAVVTQESALTTSPGETVTLTCRSSTGAVTTSNYANWVQEKPDHLFTGLIGGTYNRVPGVPARFSGSLIGDKAALTITGAQTEDEAIYFCALWYSNHFWVFGGGTKLTVLG
notes: as for B3
B6: F1.60.9 (antibody, human IgG1, kappa, V domains shown)
VH: QVQLKESGPGLVAPSQSLSITCTVSGLSLNNYGVSWVRQPPGKGLEWLGVIWGDGSTNYHSALISRLSISKDNSKSQVFLKLNSLHTDDTATYYCAINWGDYWGQGTTLIVSS
VL: DIKMTQSPSSMNASLGERVTITCKASQDINSYLSWFQQKPGKSPKILIYRANRLIDGVPSRFSGSGSGQDYSLTISSLEYEDMGIYYCLQYGVFPLTFGAGTKLELKR
notes: as for B1
B7: F2.180.16 (antibody, human IgG1, lambda, V domains shown)
VH: EVKLVESGGGLVLPGGSLKISCAASGFTFSDYYMYWIRQTPDKRLEWVAYISNTGYSTFYPDSVKGRFTVSRDNAKNTLYLQMSRLQSEDTAMYYCARHGILYAMDYWGQGTSVTVSS
VL: QPVLTQSSSASFSLGASAKLTCTLSSQYSTYTIGWYQQQPLKPPKYVMELKHDGSRHTGDGIPDRFSGSSSGADRYLSISNIQPEDEATYICGVGDTIKEQFMYVFGGGTKVTVLG
notes: as for B3

Tests used:
[1] = target: T1, monkey CD22 (full length, on HEK293T …); test: FACS on HEK293T-monkey CD22 cells
From the text: The required cells were scale-up cultured in a T-75 cell culture flask to the logarithmic growth phase. For the adherent cell CHO-K1, the medium was aspirated, the cells were washed 2 times with PBS buffer, and then digested with trypsin. After the digestion was terminated, the cells were washed 2 times with PBS buffer. For suspension cell Raji, the medium supernatant was directly centrifuged and discarded, and the cell pellet was washed 2 times with PBS. After counting the cells in the previous step, the cell pellet was resuspended with [PBS+2% (w/w) BSA] blocking solution to 2×10⁶ cells/ml, and added to a 96-well FACS reaction plate at 50 μl/well, and then the chimeric antibody test sample was added at 50 μl/well, and incubated on ice for 2 hours. The mixture was centrifuged and washed 3 times with PBS buffer, Alexa Flour 488-labeled secondary antibody (purchased from Invitrogen, catalog number: A-11013) was added at 50 μl/well, and incubated on ice for 1 hour. The obtained mixture was centrifuged and washed 5 times with PBS, and FACS (FACS Canto™, purchased from BD Company) was used for detection and result analysis. Data analysis was performed by software (CellQuest) to obtain the mean fluorescence density (MFI)of the cells. And then software (GraphPad Prism8) was used for analysis, data fitting, and EC50 value calculation. […]

[2] = target: T1, monkey CD22 (full length, on HEK293T …); test: FACS, HEK293T-monkey CD22 cells (293T as parent cells)
From the text: The required cells were scale-up cultured in a T-75 cell culture flask to the logarithmic growth phase. For the adherent cell CHO-K1, the medium was aspirated, the cells were washed 2 times with PBS buffer, and then digested with trypsin. After the digestion was terminated, the cells were washed 2 times with PBS buffer. For suspension cell Raji, the medium supernatant was directly centrifuged and discarded, and the cell pellet was washed 2 times with PBS. After counting the cells in the previous step, the cell pellet was resuspended with [PBS+2% (w/w) BSA] blocking solution to 2×10⁶ cells/ml, and added to a 96-well FACS reaction plate at 50 μl/well, and then the chimeric antibody test sample was added at 50 μl/well, and incubated on ice for 2 hours. The mixture was centrifuged and washed 3 times with PBS buffer, Alexa Flour 488-labeled secondary antibody (purchased from Invitrogen, catalog number: A-11013) was added at 50 μl/well, and incubated on ice for 1 hour. The obtained mixture was centrifuged and washed 5 times with PBS, and FACS (FACS Canto™, purchased from BD Company) was used for detection and result analysis. Data analysis was performed by software (CellQuest) to obtain the mean fluorescence density (MFI)of the cells. And then software (GraphPad Prism8) was used for analysis, data fitting, and EC50 value calculation. […] The same method was used to detect the binding of the chimeric antibodies to endogenous CD22-negative cell MoLT4 cells (purchased from ATCC, CRL-1582) and CHO-K1 cells.
HEK293T-monkey CD22 cells were subjected to FACS detection and data analysis according to the method in Example 5.2.

Binder | binding result [1] | binding result [2]
B1 | no binding | –
B2 | – | no binding (tested: 10 nM)
B3 | – | no binding (tested: 10 nM)
B4 | – | no binding (tested: 10 nM)
B5 | no binding | –
B6 | – | no binding (tested: 10 nM)
B7 | – | no binding (tested: 10 nM)
